Assay results as given in paper PMC2650471, “The structure of NMB1585, a MarR-family regulator from Neisseria meningitidis” (Acta Crystallographica Section F: Structural Biology and …, 2009).

Target: the molecule itself
Assay: crystal structure; selenomethionine-labelled NMB1585, 9.7 mg/ml in 20 mM Tris pH 7.5, 200 mM NaCl, 1 mM TCEP; crystals from 0.1 M HEPES pH 7.5, 25% PEG 3350, 0.2 M ammonium chloride; space group P2(1), two subunits per asymmetric unit; 2.1 Å

B1: NMB1585, MarR-family transcription factor from Neisseria meningitidis (natural protein)
chain: MNQLDQLGTRINLICNVFDKWIGQQDLNYNLFAVLYTLATEGSRTQKHIGEKWSLPKQTVSGVCKTLAGQGLIEWQEGEQDRRKRLLSLTETGKAYAAPLTESAQEFSDKVFATFGDKRTTRLFADLDALAEVMEKTISENKK
modifications: selenomethionine-labelled (selenomethionine in place of methionine)
notes: NMB1585, MarR-family regulator, Neisseria meningitidis strain MC58; amplified from genomic DNA with primers that run from the ATG start codon to the stop codon; cloned into pDEST17 with an N-terminal His tag and a 3C protease cleavage site; also called meningococcal MarR; source: tag removed with 3C protease; not shown: His tag, N-terminal, cleaved
stoichiometry N: 2
